Source: patent publication US20230115257A1 (CURIA IP, published 2023)
Substitutions are numbered along the chain they refer to.

B1: 9-G24-A (antibody, V domains shown)
VH: QVQLQQSGAELVRPGASVKLSCKASGYTFTDYEMHWVKQTPVHGLEWIGVIDPETGDTAYNQKFKDKATLTADKSSSTAYMELRSLTSEDSAVYYCARRRDYGNPYWYFDVWGAGTAVTVSS
VL: EIVLTQSPALMAASPGEKVTITCSASSSISSSNLHWYQQKSGTSPKPWIYGTSNLASGVPVRFSGSGSGTSYSLTISSMEAEDAATYVCQQWSNYPYTFGSGTKLEIK
B2: 9-M12-A (antibody, V domains shown)
VH: EVQLVESGGDLVKPGGSLKLSCTASGFTFSSYGMSWVRQTPDKRLEWVTTISSGGGYTYVPDSVKGRFTISRDNAKNTLYLHMSSLKSEDTAMYFCARPLIPTMVEAFDYWGQGTSLTVSS
VL: SIVMTQTPKFLPVSAGDRVTMTCKASQSVGNNVAWYQQKPGQSPKLLIYYASNRYTGVPDRFTGSGSGADFTFTISSVQVEDLAVYFCQQHYSSPFTFGTGTKLEIK
B3: 3-P17-A (antibody, V domains shown)
VH: QVQLKQSGPGLVQPSQSLSITCTVSGFSLTSYGVHWVRQSPGKGLEWLGVIWSGGITDYNAGFISRLSISKDNSKSQVFFTMNSLQADDTAIYYCARIITTVLDQFADWGQGTLVTVSA
VL: DIVLTQSPASLAVSLGQRATISCRASQSVSTSTYSYIHWYQQKPGQPPKLLIKYASNLESGVPARFSGSGSGTDFTLNIHPVEEEDTATYYCQHSWEIPPTFGAGTKLELK
B4: 3-K11-A (antibody, V domains shown)
VH: EVQLQQSGPELVKPGASVKMSCKASGYTFTSYVMHWVKQKPGQGLEWIGYINPYNDGTEYNEKFKGKATLTSDKSSSTAYMELSSLTSEDSAVYHCAREAYRYFDVWGTGTTVTVSS
VL: DIQMTQSPASLSVSVGETVTITCRASENIYSNLAWYQQKQGKYPQLLVYGATNLADGVPSRFSGSGSGTQYFLKINSLQSEDFGSYYCQHFWGIPWTFGGGTKLEIK
B5: 4-O14-B (antibody, V domains shown)
VH: QVQLQQPGAELVKPGASVKLSCKASGYAFISHWMHWVRQRPGRGLEWIGRIDPNSSGSKDNEKFRSKATLTVDKPSSTAYMQLSSLTSEDSAVYYCARSPYYSNPYWYFDVWGAGTTVTVSS
VL: B1 VL with A25V, G42E, S77T, S78N, V88Y, N94S, Y97F

The binders below were run against T1, SARS-CoV-2 (WIV02 isolate) prefusion stabilized spike trimer protein (SARS-CoV-2 (WIV02 isolate), UniProt P0DTC2 14-1213) (assay: Table A: binding pattern against variant spike proteins).
T1 construct: also called WT; SARS-CoV-2 spike trimer

Row | Binder | binding result
1 | B1 | no binding
2 | B2 | no binding
3 | B3 | no binding
4 | B4 | no binding

These binders were tested against T2, SARS-CoV-2 B.1.1.7 spike protein (SARS-CoV-2 B.1.1.7 (Alpha), UniProt P0DTC2 13-1213) in the same assay as above.
T2 construct: also called alpha; SARS-CoV-2 B.1.1.7 spike trimer variant

Row | Binder | binding result
5 | B1 | no binding
6 | B2 | no binding
7 | B3 | no binding
8 | B4 | no binding

The binders below were run against T3, SARS-CoV-2 P.1 spike protein (SARS-CoV-2 P.1 (Gamma), UniProt P0DTC2 13-1213) in the same assay as above.
T3 construct: also called gamma; SARS-CoV-2 P.1 spike trimer variant

Row | Binder | binding result
9 | B1 | no binding
10 | B2 | no binding
11 | B3 | no binding
12 | B4 | no binding

These binders were tested against T4, SARS-CoV-2 B.1.617.2 spike trimer variant (SARS-CoV-2 B.1.617.2 (Delta), UniProt P0DTC2 16-1213) in the same assay as above.
T4 construct: also called delta; SARS-CoV-2 Delta Spike

Row | Binder | binding result
13 | B1 | no binding
14 | B2 | no binding
15 | B3 | no binding
16 | B4 | no binding

What follows are binders tested against T5, SARS-CoV-2 B.1.1.529 spike trimer variant (SARS-CoV-2 B.1.1.529 (Omicron), UniProt P0DTC2 16-1213) in the same assay as above.
T5 construct: also called omicron; Omicron B.1.1.529

Row | Binder | binding result
17 | B1 | no binding
18 | B2 | no binding
19 | B3 | no binding

What follows are binders tested against T6, SARS-CoV-2 BA.2 spike trimer variant (SARS-CoV-2 Omicron BA.2, UniProt P0DTC2 16-1213) in the same assay as above.
T6 construct: also called Omicron BA.2

Row | Binder | binding result
20 | B1 | no binding
21 | B2 | no binding
22 | B3 | no binding
23 | B4 | no binding

Each binder was assayed against T7, SARS-CoV-2 Beta (B.1.351) variant prefusion stabilized spike trimer protein (SARS-CoV-2 Beta (B.1.351), UniProt P0DTC2 14-1213) (assay: ELISA screens of hybridomas on WT, Alpha, Beta and Gamma spike).
T7 construct: also called SARS-CoV-2 B.1.351 spike protein; β spike

Row | Binder | binding result
24 | B5 | binds

Each binder was assayed against T7, SARS-CoV-2 Beta (B.1.351) variant … (assay: Table A (reprint): binding pattern against variant spike proteins).

Row | Binder | binding result
25 | B3 | binds
